Experiment: soluble on expression in E. coli; label from the status in PepcDB or PDB records

| Sequence | soluble on expression in E. coli |
| --- | --- |
| MSLKGGEYLETAAKVDVVVVDKTGTLTTGRPELTDVEVIEPAYSQGEVLELAARAETASEHPLADAIIRGAQDRGLSTTLVEAAENITGRGIIANVDGQAVAVGSAELLDHEPDSTRILELNAEGKTAMFVGVNGHAIGIVAVADAVRSDSASAIESLHKAGIQVVMATGDAHRVAQNVASKLGVDEVYSELLPEQKLELVRDLQAAGKTVAMVGDGVNDTPALAAADIGVAMGVAGSPAAIETADIALMADRLPRLAHAVTLAKRTVRTMREGHHHHHH | soluble |
| MSELLTTYRPIKILLQLDPNLGNNSYNGRVKIDYEFTGETSEIKIQTSRDFQWTSVRLATFYDFNEGCPVYASVDCENYVHDAESEILTLPLGNPLTPETTENGFYIELEWTGPINPQGETTGLYAIDESTIEANMKDGNAHKVFPCYEGGVSAKFWLTVITDERTRVETNMDDAGHEEFEGRVKNNFLKEEELTIEDVYIYVTPIIDME | not soluble |
| MSLIYFFMVDAVELSRKYEGKIEIYPKVPITSYNDFALIYTPGVAEVSKAIYKDPDKSFELTSRWNTIAVVTDGTRVLGLGNIGPTAAMPVMEGKSLLFKYLGGVDAIPLPINVKSADEFTNVVKALETSFGGINLEDIESPKCFYILEKLQSMLNIPVWHDDQQGTAAAILAGLINAMILTNKDPKESKVVFYGAGASNIAAARILAKYGFKYENIVMIDSKGPLYADREDVDHLMLHHKWKYELAIKTNKWEAKEIKDAFSGADAVVAASTPGPNVIKKEWISLMNKEAIVFALANPVPEIWPQDAKEAGAKIVATGRSDFPNQVNNSLIFPAIFRGVLDSRAKAITDEMTIAASEALAKYARDRGINENYIIPRMDEWEAFYEEAAAVASKAVELGLARVKKSREEFREIAKERIIRARKIMNLVISTWSPEGHHHHHH | not soluble |
| TTGSDGKATFDVTQNETYGLATPLTATLMRDTTKSATMDVIFTVITSPNSPKAKYWGHMPDTFTSRAGVTFKRPLLAAEATLGSSVSNNNESWSYLFYTNKVTPDCPVEYQPRLNELQGLYNDHPGGTILTDLGLPITAGSGNWWTYEMSTTDALTWYYGVINLKTGQSTTTINGYALMLCL | not soluble |
| MRIALLVKQARLQQGVRQIDLAERLGITLRTFRRIEAGSADGVSLRDFMLVVWGLGVSERLFQGLRDDESFSVEQLEAADRKRVRLPRNRPEDF | not soluble |
| MGNIVKPFKQQPSSFAYQPLTVPLIPEVEAQSENLRVFSFKEWMKATKKSRQDRVVIRDDHYIRSFYKGYIDNTTFAPSRTKTGTPVSVVEYLHGSSQALQEWVDIFGVILLELLVGSQDRSTALKNQSSDWTGSFLPDNYKIGEIIDPRIGSDYPVDAATKIGLGPNVRCPYIGHRDMDKC | soluble |
| MGSDKIHHHHHHMFTQDESYIKWKLFLEGDDQAYSWIYTHYIQVLYNYGLQITPDSEIVKDCIQDVFVKIYKAKKKLTVPQNPKVYLMIALKNNIYNTFNQERLQKNYAFSLYQTEEQLTVKNEFIDQEARHEEMNNIKRMMKILTPRQREVIYYRFIEELSYDDICQIMGLNYQSAYNLLQRSLQKIREAYGVTGIWMLILHQLTYLH | not soluble |
| IVRPPFTYATLIRQAIMESSDRQLTLNEIYSWFTRTFAYFRRNAATWKNAVRHNLSLHKCFVRVENVKGAVWTVDEVEYQKRRSQKITGSPTL | soluble |
| MRTLAVISAGLSTPSSTRQIADSISEAVTAAVSARGEALSVSTIELSELIPDLMTAMTTRVHTTKLEEITSALSASDGLVVATPVFKASYTGLFKMFFDILDTDALTGMPTIIAATAGSARHSLVLDYALRPLLSYMRAVVVPTGVFAATEDFGGPEGAEFNKRIARAAGELASLIVEESGNVGLEHHHHHH | not soluble |
| MAHHHHHHASVGRFVQTADPAVTALESPPLPTETRLWRQSPDCQSESDSNRVSGSVLDSVKSNGGPKHASTARLHASQDLPTSVTRFLCLSSSSNSAAAKDLRRQLLVVRDCCVALGNKVKGSELLLLGGSQLSRKVEAMADFNSCLGVIFAASLTFTGETEGVAKDTLCSVVEMLKSAQESGDEKVFRAAVVKIVNRILLCTPLRPPARNAAKETARKSAGKQEQHAEQEPKLEDECLDFLTVEDGVPVLLECVWKRWLRYFEDGYVRYVKKLMAEERQALEAAAAAAAADDYNGEEAQYVDGVSATTTQTISTVPLFTTCQDYWKSPASAYAQFCYILLAIFFVRTKDFSLNYLARVTKLVQYFTYQLEFEDGEPIAVRTDTDAEEDSAQSEDEDDDRTPPQQEGPRKEKQVHSLPMPEYDKAVTQRRFRMSRRSSSQGLVPTVVSFKKAEKPRRHCHKCFFTDALPGDLRPSVEAVRQEEAEAAARDSEEHSHLPVVRRSANLDLSEHSISPQREREQLDACDASMESVQGV | soluble |
| MGSDKIHHHHHHMPAIIKQFFFKSHEMTLSDPRFLSLNQWLNAYFSDEVTPVLISGDASFRRYFRITTPDATFIAADSPPQLVPIAPFIALSNAYAAVGLTVPKVIHADAAQGFMLMSDLGDTQLLSVLNVQNVADYYRQALDLLPQVASVVASQHLDSGLVQPLPLYDEAFVRRELHIFTEWLLGTHLNLSLDESEQQMLSHSFDLLVDYALSQPSVGMHRDFHSRNLMLQAGELCVIDFQDAVVGPVTYDAVSLLRDCYIRWPQPLVADLMQYHYQQALALGFIPALTTLEQYQTWFDLMGLQRHIKAVGIFARLNYRDSKPAYMADIPLTLTYIVDIAMQYPELVPFAHWLTRRVLPAFTASQSLSEVKQ | not soluble |
| MRDEISSRIRRLPAGMSGGRAPDFALAVYGGAFDPPHPGHESVIRRALLCAERVALVPSHRHAFGKRMGDFELRCRWLARLARRIDPRRVYCEPIEAGLMPDRPAVYSIDLLEALAARSGLASARIALLIGADNEAELPRFERAAELCWRFGRLVAEERLPLHSSMIRQRLREGLAVPEAWCLPEVKDELHCYGGERQAV | not soluble |
| MAKKTLPAGVKSPPYIFSPIPFLGHAIAFGKSPIEFLENAYEKYGPVFSFTMVGKTFTYLLGSDAAALLFNSKNEDLNAEDVYSRLTTPVFGKGVAYDVPNPVFLEQKKMLKSGLNIAHFKQHVSIIEKETKEYFESWGESGEKNVFEALSELIILTASHCLHGKEIRSQLNEKVAQLYADLDGGFSHAAWLLPGWLPLPSFRRRDRAHREIKDIFYKAIQKRRQSQEKIDDILQTLLDATYKDGRPLTDDEVAGMLIGLLLAGQHTSSTTSAWMGFFLARDKTLQKKCYLEQKTVCGENLPPLTYDQLKDLNLLDRCIKETLRLRPPIMIMMRMARTPQTVAGYTIPPGHQVCVSPTVNQRLKDSWVERLDFNPDRYLQDNPASGEKFAYVPFGAGRHRCIGENFAYVQIKTIWSTMLRLYEFDLIDGYFPTVNYTTMIHTPENPVIRYKRRSTHHHHHH | soluble |
| GPGSMRLALVGKRTHSLRDNGTPRMHAGDVFICISGSGCIGSIMCTYAQAKKASTGIVMIAGGVGDVPPKDSACATTTLLRSRDGLPWHLHGGGALGPVDGQPVRVRLVFAALFGRDALGGDAAGA | soluble |
| MGSDKIHHHHHHMGEAIVITSGKGGVGKTTTSANLGTALAILGKRVCLVDTDIGLRNLDVVMGLENRIIYDLVDVVEGRCKMHQALVKDKRFDDLLYLMPAAQTSDKTAVAPEQIKNMVQELKQEFDYVIIDCPAGIEQGYKNAVSGADKAIVVTTPEISAVRDADRIIGLLEQEENIEPPRLVVNRIRNHLMKNGDTMDIDEIVQHLSIDLLGIVADDDEVIKASNHGEPIAMDPKNRASIAYRNIARRILGESVPLQVLEEQNKGMMAKIKSFFGVRS | not soluble |
| MGSDKIHHHHHHMVVNLTYMLNTEDRKFIIDSVKKGYKVTELARMFNVTPRRIQQILHESEMPESAKDSELTDEEKKFIDDLWDRYRIGSRTIYYLLRSKGLNVSYYKIYNYMKMKRMVQIKDNALIVNGKKAEPPLSTVLLDYHQKNFNDQYAIFCVDMTTKKILSYAESVKITSDVVSGVL | not soluble |
| GSPGGSLFVALYDFVASGDNTLSITKGEKLRVLGYNHNGEWCEAQTKNGQGWVPSNYITPVS | soluble |
| ARIGLYEKALPQNLTWAERLTWAKKLGFDFLEMSIDESDERLARLAWTPSQLQEFSQLMVKEDFFIHSLCLSGHRRFPLGSLNKETREKGRKILSQAIRLAHQLNIRVIQIAGYDVFYEEKTAETREFFLQGLKKGVEEAAQYGVILAVEIMDDPFMNSIQKFLEIKEQIPSPFLHVYPDLGNLSAWPENNPAVELEKGIAEIAAIHLKDTFAVTDTFEGKFREVTFGEGCVDFTGLLKTLKRLNYSGPFLIEMWNETDLNFQEKIQAAQQYLYPKLAEVGYY | not soluble |

Source: the DeepSol protein solubility set
